Assay: yeast display, Sf9 membrane polyspecificity reagent, FACS + sequencing; frameworks hold sequencing errors
Outline: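 Synthetic nanobody libraries on Saccharomyces cerevisiae BJ5465 were galactose-induced for 36–48 hours, stained 1 hour at 4 °C with 10% biotinylated, detergent-solubilized Sf9 membrane reagent and enriched on streptavidin microbeads. FACS then separated cells into low and high (top ~1%) gates by anti-HA (expression) and streptavidin (reagent binding) fluorescence. Genes were colony-PCR amplified, MiSeq 2 × 250 sequenced and CDR-length filtered. A clone's polyreactivity label is that of its gate of origin.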

Sequence	polyreactivity (PSR sort gate)
QVQLVESGGGLVQAGGSLRLSCAASGRTIWYYAMGWYRQAPGNERELVASITRSGGSTYADSVQGRFPISRDNAKNTVYLQMNSLKPQDTAVYYCAVGAVVPGLRRRTYYYWGQGTQVTVSS	high polyreactivity
QVQLVESGGGLVQAGGSLRLSCAASGRTIYSNAMGWYRQPPGKERELVAAITGSSGSTYYADSVKGRFTISRDNAKNTVYLQMNSLKPEDTAVYYCAASCYCSLVRQLRLRGQGTQVTVSS	low polyreactivity
QVQLVESGGGLVQAGGSLRLSCAASGRTIYYYVMGWYRQAPGKERQLVAAISASGGSTRYADSVKGRFTISRDNAKNTVYLQMNSLKPEDTAVYYCAASRRYGGYRFDYWGQGTQVTVSS	high polyreactivity
QVQLVESGGGLVQAGGSLRLSCAASGRTLAFYAMGWYRQAPGKERELVAAITRGGGTYYADSVKGRFTISRDNAKNTVDLQMNSLIPEDTAVYYCNADSGFRWGAFDYWGQGTQLTVSS	low polyreactivity
QVQLVESGGGLVQAGGSLRLSCAASGRTLAPNAMGWYRQAPGKERELVSTITRGGTTNYADSVKGRFTISRDNAKNTVYLQMNSLKPEDTAVYYCAKAHYLGYYQRYDYWGQGTQVTVSS	low polyreactivity
QVQLVESGGGLVQAGGSLRLSCAASGRTLDGNDMGWYRQPPGKERELVAAITVTGSSTYYADSVKGRFTISRDNAKNTVYLQMNSLKPEDTAVYYCAKASGGDVRYSYSYRMDYWGQGTQVTVSS	low polyreactivity
QVQLVESGGGLVQAGGSLRLSCAASGRTLDHYAMGWYRQAPGKERELVAAITSSGGSTYYADSVKGRFTISRDNAKNTVYLQMNSLKPEETAVSYCAADVSSQREWIIEHDYWGQGTQVTVSS	low polyreactivity
QVQLVESGGGLVQAGGSLRLSCAASGRTLDRYAMGWYSPAPGKERELVAAIRWSTGSTYYADSVKGRFTISRDNAKNTVYLQMNSLKPEDTAVYYCAAELSYWWYFAMDYWGQGTQVTVSS	high polyreactivity
QVQLVESGGGLVQAGGSLRLSCAASGRTLDWNAMGWYRQAPGKERELVAAISWSGDSTYYADSVKGRFTISRDNAKNTVYLQMNSLKPEDTAVYYCAARYGRSWGRGYGYWGQGTQVTVSS	low polyreactivity
QVQLVESGGGLVQAGGSLRLSCAASGRTLDWNAMGWYRQAPGKERELVAAISWSGDSTYYADSVKGRFTISRDNAKNTVYLQMNSLKPEDTAVYYCDARYGRSWGRGYGYWGQGTQVTVSS	low polyreactivity
QVQLVESGGGLVQAGGSLRLSCAASGRTLEHNAMGWYRQAPGKERELVAAISGSGGTTYYADSVKGRFTISRDNAKNTVYLQMNSLKPEDTAVYYCNAKLYRSFDYWGQGTQVTVSS	low polyreactivity
QVQLVESGGGLVQAGGSLRLSCAASGRTLEQYAMGWYRQAPRKERELVAAINKSGARTYYADSVKGRFTISRDNAKNSVYLQMNSQKPEDTAVYYCNTVGPSYLFDYWGQGTQVTVSS	high polyreactivity
QVQLVESGGGLVQAGGSLRLSCAASGRTLGLYAMGWYRQAPGKERELVAAITTSGGSTSYADSVKGRFTISRDNAKNTVYLQMNSLKPEDTAVYYCAARYLSYITGTSYYWGQGTQVTVSS	low polyreactivity
QVQLVESGGGLVQAGGSLRLSCAASGRTLGPNAMGWYRQAPGKERELVAAISWSGGSTYYADSVKGRFTISRDNAKNTVYLQMNSLKPEDTAVYYCAAEWYWVYYVPYEYWGQGTQVTVSS	low polyreactivity
QVQLVESGGGLVQAGGSLRLSCAASGRTLGRNAMGWYRQAPGKVRELVASISSGGSTNYAYSVKGSFTISRDNAKNTVYLQMNSQKPEDTEVYYCNKRYRSLYSSGYDYWGQVTQVTVSS	high polyreactivity
QVQLVESGGGLVQAGGSLRLSCAASGRTLGRYAMGWYRHAPGKERELVADISFRGGSTYYADSVKGRFTISRDNAKNTVYLQMNSLKPVDTAVYYCAAVPGPASKYGYWGQGTQVTVSS	high polyreactivity
QVQLVESGGGLVQAGGSLRLSCAASGRTLGVYAMGWSRQAPGKERELVAAIRYRGGITYYADSVKGRFTISRDNAKNTVYLQMNSLKPEDTAVYYCAADWAWDTKSAPAYPRAYDYWGQGTQVTVSS	low polyreactivity
QVQLVESGGGLVQAGGSLRLSCAASGRTLGYYAMGWYRQAPGKERELVAAITSRTGTTYYADSVKGRFTISRDNAKNTVFLQMNSLKPEDTAVYYCNAAYYSTVLGWYLEYDYWGQGTQVTVSS	high polyreactivity
QVQLVESGGGLVQAGGSLRLSCAASGRTLHDYTMGWYRQSPGKERELVAGITSGGRTNYADSVKGRFTISRDNAKNTVYLQMNSLKPEDTADYYCAAAWTWWRLYAVDYWGQGTQVTVSS	high polyreactivity
QVQLVESGGGLVQAGGSLRLSCAASGRTLHYYAMGWYRQAPGKERELVARINWSGGSTYYADSVKGRFTISRDNAKNTVYLQMNCLKPEDTAVYYCARTSYYWSSFDYWGQGTQVTVSS	high polyreactivity
QVQLVESGGGLVQAGGSLRLSCAASGRTLKRNAMGWYRQAPGKERELVAAISFRVTNTYYADSVKGRFTISRDNAKNTVYLQMNSLKPEDTAVYYCAVPDSRFYSPRRVSPHDYWGQGTQVTVSS	high polyreactivity
QVQLVESGGGLVQAGGSLRLSCAASGRTLKYNPMGWYRQAPGKERELVAAISRSGGRTYYADSVKGRFTIARDIAKYSVYSQINSLKPEDTAVYYCARESSYYKYYYWGQGTQVTLSS	high polyreactivity

Sequence	polyreactivity (PSR sort gate)
QVQLVESGGGLVQAGGSLRLSCAASGRTLLPNAMGWYRPAPGKERELVADISTSDGSTRYADSVKGRFTISRDNAKNTVYLQMNSLKPEDTAVYYCAAGSEYYSYGGVRFSFYYWGQGTQVTVSS	low polyreactivity
QVQLVESGGGLVQAGGSLRLSCAASGRTLNTYTMGWYRQAPGKERELVAAITWRGGRTYYADSVKRRFTISRDYAKNTVYLQMNSLKPEDTAVYYCAAVRRNKPVGYGYWGQGTQVTVSS	high polyreactivity
QVQLVESGGGLVQAGGSLRLSCAASGRTLPAYAMGWYRQAPGKERELVAAISWGGGSTYYADSVKGRFTISRDNAKKTVYLQMNSLKPEDTAVYYCAVAGYWFAVAEYDYWGQGTQVTVSS	low polyreactivity
QVQLVESGGGLVQAGGSLRLSCAASGRTLPEYGMGWSRQAPGKEREFVAAISTRGGSTYYANSVKGRFTISRDNAKNTVYLQMNSLKPEDTAVYYCAKVYDRSCGDYWGQGTQVTVSS	low polyreactivity
QVQLVESGGGLVQAGGSLRLSCAASGRTLQGYAMGWYSQAPGKERELVAAISRGGGSTYADSVKGRFTISRDNAKNTVYLQMNSLKPEDTAVYYCAAVRGIYGGHYFRYDYWGQGTQVTVSS	high polyreactivity
QVQLVESGGGLVQAGGSLRLSCAASGRTLRRNAMGWYRQAPGKERELVAAITWSGTSTYYADSVKGRFTISRDNAKNTVDLQMNSLKPEDTAVYYCAAEVAYTDTEYFWYYYWGQGTQVTVSS	high polyreactivity
QVQLVESGGGLVQAGGSLRLSCAASGRTLSHYAMGWYRQAPGKERELVAAITRSGGSTYYADSVKGRFTISRDYAKNTVYLQMNSLKPEDTAVYYCNKTLYTTYDYWGQGTQVTVSS	low polyreactivity
QVQLVESGGGLVQAGGSLRLSCAASGRTLSVYAMGWYRQAPGKERELVAAITIRGGRTYYADSVKGRFTISRDNAKNTVYLQMNSLKPEDTAVYYCAAPPYVKMDYWGQGTQVTVSS	high polyreactivity
QVQLVESGGGLVQAGGSLRLSCAASGRTLSYYAMGWYRQAPGKEREFVAAITGSGGSTYYADSVKGRFTISRDNAKYTVYLQMNSLKPEDTAVYYCNAKGLGVFTVEYYYWGQGTQVTVSS	low polyreactivity
QVQLVESGGGLVQAGGSLRLSCAASGRTLSYYAMGWYSQAPGKERELVAAITWNGGRTYYADSVKGRFTISRDNAKNTVYLQMNSRKPEDTAVYYCNAVYSPRYYVGGYDYWGQGTQVTVSS	high polyreactivity
QVQLVESGGGLVQAGGSLRLSCAASGRTLTQNAMGWYRQAPGKERELVATISWTAGSTYYADSVKGRFTISRDNAKNTVYLQMNSLKPEDTAVYYCAADVFYSIYDYWGQGTQVTVSS	low polyreactivity
QVQLVESGGGLVQAGGSLRLSCAASGRTLVKYAMGWYRQAPGKERELVAAISSGGGTYYADSVKGRFTISRDNAKNTVYLQMNSLKPEDTAVYYCATPYYRRYAAPGYDYWGQGTQVTVSS	low polyreactivity
QVQLVESGGGLVQAGGSLRLSCAASGRTLVSNAMGWYRQAPGKERELVARISYRGGSTYYADSVKGRFTISRDNAKNTVYLQMNSLKPEDTAVYYCAAGVRGSGRRMEYWGQGTQVTVSS	high polyreactivity
QVQLVESGGGLVQAGGSLRLSCAASGRTLVYYAMGWYRQAPGKERELVAAITSVGSTNYADSVKGRFTISRDNAKNTVYLQMNSLKPEDTAVYYCAVRRVVARYDHWGQGTQVTVSS	low polyreactivity
QVQLVESGGGLVQAGGSLRLSCAASGRTLWSYVMGWYRQAPGKERELVAAITSGGTTYYADSVKGRFTISRDKAKNTVYLQMNSLKPEDTAVYYCAAGKYYLRLLPYGYWGQGTQVTVSS	high polyreactivity
QVQLVESGGGLVQAGGSLRLSCAASGRTLYGYTMGWYRQAPGQEREVVAAINAGGGSTYYADSVKGRFTSSRDNAKNTVYLQMNSLKPEDTAVYSCNARVRVRLGRNWSSYYYWGQGTQVTVSS	high polyreactivity
QVQLVESGGGLVQAGGSLRLSCAASGRTLYIYAMGWYRQAPGKERELVAAITRRGDSTYYADSVKGRFTISRDNAKNTVYLQMNSLKPEDTAVYYCAADFQDTSSQYDPAYEYWGQGTQVTVSS	low polyreactivity
QVQLVESGGGLVQAGGSLRLSCAASGRTLYRNDMGWYIQAPGKERELVARITWSGASTYYADSVKGRFTISRDNAKNSVYLQMKSLKTEDTAVYFCAALYLSRRYGPDDSYNFWGQGTQVTVSS	high polyreactivity
QVQLVESGGGLVQAGGSLRLSCAASGRTLYVNAMGSYRQAPGKERELVARISSGSSTNYADSVKGRFTISRDNAKNTVYLQMNSLKPEHTAVYYCAARYTARRQSYGYWGQGTQVTVSS	high polyreactivity
QVQLVESGGGLVQAGGSLRLSCAASGRTLYWYAMGWYRQAPGKERQLVAVISGSGASTYYADSVKGRFTISRDNAKNTVYLQMNSLKPEDTAVYYCNARDYRRYGRYHWQDYDYWGQGTQVTVSS	high polyreactivity
QVQLVESGGGLVQAGGSLRLSCAASGRTLYYYAMGWYRQAPGKEMDLVASISRGGNTNYADSVKGRFTISRDNAKNSVYLQMYSLKPEDTAVYYCAAQYSPYSFSQYVYWGQGTQVTVSS	high polyreactivity

From the nanobody polyreactivity screen of Harvey et al. (2022)
